What all share (assay type): cell-based
The test system of one assay is RAJI cells. The experiment in a line: JNG assay, co-culture with RAJI cells. The conditions noted are these: JNG cells expressing construct, co-culture with Raji. In short, it runs like this:
(§1)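 Jurkat-NFAT-GFP (JNG) cells stably expressing SAR constructs via lentiviral transduction and puromycin/blasticidin selection were cocultured with target cells at E:T ~1:2 for ~4–18 h. NFAT-driven GFP was measured by FACS versus parental JNG cells; scores +/- to 5+ denote ~5–50% GFP-positive cells.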

The subject of a further assay is Nalm6 cells. Briefly: JNG assay, co-culture with Nalm6 cells. The conditions noted are these: co-culture with Nalm6. The method in brief: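 Read-out is % GFP-positive cells by flow cytometry after ~4–18 h co-culture (E:T ≈1:2) of target lines with SAR-transduced, puromycin/blasticidin-selected JNG cells. Grades +/-, +, 2+…5+ correspond to approximately 5%, 10%, 20%, 30%, 40%, 50% GFP+ over parental JNG controls.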

The subject of another assay is RS;411. Briefly: JNG assay, co-culture with RS;411 cells. As to conditions: co-culture with RS411. In short, it runs like this: as §1
The test system of a further assay is L363 cells. The experiment in a line: JNG assay, co-culture with L363 cells. The conditions noted are these: co-culture with L363. The method in brief:
as §1

B1: 22136 (protein)
chain: MALPVTALLLPLALLLHAARPEVQLVESGGGLVQAGGSLRLSCAASGRTFSMGWFRQAPGKEREFVAAITYSGGSPYYADSVKGRFTISRDNAKNTVYLQMNSLKPEDTAVYYCAANPTYGSDWNAENWGQGTQVTVSSGTGGGGSGGGGSGGGGSEFDIQMTQSPSSLSASVGDRVTITCKASDHINNWLAWYQQKPGQAPKLLIYGATTLETGVPSRFSGSGSGTDYTLTISSLQPEDFATYYCQQSWNTPWTFGQGTKLEIKRLEDLKNVFPPEVAVFEPSEAEISHTQKATLVCLATGFYPDHVELSWWVNGKEVHSGVCTDPQPLKEQPALNDSRYCLSSRLRVSATFWQNPRNHFRCQVQFYGLSENDEWTQDRAKPVTQIVSAEAWGRADCGFTSESYQQGVLSATILYEILLGKATLYAVLVSALVLMAMVKRKDSRGRAKRSGSGATNFSLLKQAGDVEENPGPTSATMDWIWRILFLVGAATGAHSGPQVQLQESGGGLAQAGGSLRLSCAASGRTFSMGWFRQAPGKEREFVAAITYSGGSPYYASSVRGRFTISRDNAKNTVYLQMNSLKPEDTAVYYCAANPTYGSDWNAENWGQGTQVTVSSGSGGGGSGGGGSGGGGSFEQVQLQQPGAELVKPGASVKMSCKASGYAFSSYWINWMKQKPGQGLEWIGQIYPGDGDTNYNGKFKGRATLTADTSSSTAYMQLSSLTSEDSAVYFCARSITTVVGCAMDYWGQGTSVTVSSTRIQNPDPAVYQLRDSKSSDKSVCLFTDFDSQTNVSQSKDSDVYITDKCVLDMRSMDFKSNSAVAWSNKSDFACANAFNNSIIPEDTFFPSPESSCDVKLVEKSFETDTNLNFQNLSVIGFRILLLKVAGFNLLMTLRLWSSRAKRSGSGVKQTLNFDLLKLAGDVESNPGPSRGHMTEYKPTVRLATRDDVPRAVRTLAAAFADYPATRHTVDPDRHIERVTELQELFLTRVGLDIGKVWVADDGAAVAVWTTPESVEAGAVFAEIGPRMAELSGSRLAAQQQMEGLLAPHRPKEPAWFLATVGVSPDHQGKGLGSAVVLPGVEAAERAGVPAFLETSAPRNLPFYERLGFTVTADVEVPEGPRTWCMTRKPGA
As for B1, the “NFAT-GFP ASSAY: Raji” value in the assay on RAJI cells is 3+ (refer to approximately 5%, 10%, 20%, 30%, 40% and 50% GFP positive cells). Also, the “NFAT-GFP ASSAY: Nalm6” value in the assay on Nalm6 cells was “+ (refer to approximately 5%, 10%, 20%, 30%, 40% and 50% GFP positive cells)”. For the same molecule, in the assay with RS;411, the “NFAT-GFP ASSAY: RS411” value is “+ (refer to approximately 5%, 10%, 20%, 30%, 40% and 50% GFP positive cells)”.

B2: 22123 (protein)
chain: MALPVTALLLPLALLLHAARPACEVQLLESGGGLIQPGGSLRLSCAASGFTFSSHAMTWVRQAPGKGLEWVSAISGSGDYTHYADSVKGRFTISRDNSKNTVYLQMNSLRAEDSAVYYCAKDEDGGSLLGHRGQGTLVTVSSGTGGGGSGGGGSGGGGSEFDIQMTQSPSSLSASVGDRVTITCKASDHINNWLAWYQQKPGQAPKLLIYGATTLETGVPSRFSGSGSGTDYTLTISSLQPEDFATYYCQQSWNTPWTFGQGTKLEIKRLEDLKNVFPPEVAVFEPSKAEIAHTQKATLVCLATGFYPDHVELSWWVNGKEVHSGVCTDPQPLKEQPALNDSRYCLSSRLRVSATFWQNPRNHFRCQVQFYGLSENDEWTQDRAKPVTQIVSAEAWGRADCGITSASYHQGVLSATILYEILLGKATLYAVLVSALVLMAMVKRKDSRGRAKRSGSGATNFSLLKQAGDVEENPGPTSATMDWIWRILFLVGAATGAHSGPQVQLQESGGGLAQAGGSLRLSCAASGRTFSMGWFRQAPGKEREFVAAITYSGGSPYYASSVRGRFTISRDNAKNTVYLQMNSLKPEDTAVYYCAANPTYGSDWNAENWGQGTQVTVSSGSGGGGSGGGGSGGGGSFEQVQLQQPGAELVKPGASVKMSCKASGYAFSSYWINWMKQKPGQGLEWIGQIYPGDGDTNYNGKFKGRATLTADTSSSTAYMQLSSLTSEDSAVYFCARSITTVVGCAMDYWGQGTSVTVSSTRIQNPDPAVYQLRDSKSSDKSVCLFTDFDSQTNVSQSKDSDVYITDKCVLDMRSMDFKSNSAVAWSNKSDFACANAFNNSIIPEDTFFPSSDVPCDVKLVEKSFETDTNLNFQNLSVIGFRILLLKVAGFNLLMTLRLWSSRAKRSGSGVKQTLNFDLLKLAGDVESNPGPSRGHMTEYKPTVRLATRDDVPRAVRTLAAAFADYPATRHTVDPDRHIERVTELQELFLTRVGLDIGKVWVADDGAAVAVWTTPESVEAGAVFAEIGPRMAELSGSRLAAQQQMEGLLAPHRPKEPAWFLATVGVSPDHQGKGLGSAVVLPGVEAAERAGVPAFLETSAPRNLPFYERLGFTVTADVEVPEGPRTWCMTRKPGA
In the case of B2, in the assay on L363 cells, the “NFAT-GFP ASSAY: L363” value was 3+ (refer to approximately 5%, 10%, 20%, 30%, 40% and 50% GFP positive cells). For the same molecule, in the assay on Nalm6 cells, the “NFAT-GFP ASSAY: Nalm6” value is 5+ (refer to approximately 5%, 10%, 20%, 30%, 40% and 50% GFP positive cells). Also, the “NFAT-GFP ASSAY: RS411” value in the assay with RS;411 is 4+ (refer to approximately 5%, 10%, 20%, 30%, 40% and 50% GFP positive cells).

B3: 22132 (protein)
chain: MALPVTALLLPLALLLHAARPACEVQLLESGGGLIQPGGSLRLSCAASGFTFSSHAMTWVRQAPGKGLEWVSAISGSGDYTHYADSVKGRFTISRDNSKNTVYLQMNSLRAEDSAVYYCAKDEDGGSLLGHRGQGTLVTVSSGTGGGGSGGGGSGGGGSEFDIQMTQSPSSLSASVGDRVTITCKASDHINNWLAWYQQKPGQAPKLLIYGATTLETGVPSRFSGSGSGTDYTLTISSLQPEDFATYYCQQSWNTPWTFGQGTKLEIKRLEDLKNVFPPEVAVFEPSKAEIAHTQKATLVCLATGFYPDHVELSWWVNGKEVHSGVCTDPQPLKEQPALNDSRYCLSSRLRVSATFWQNPRNHFRCQVQFYGLSENDEWTQDRAKPVTQIVSAEAWGRADCGITSASYHQGVLSATILYEILLGKATLYAVLVSALVLMAMVKRKDSRGRAKRSGSGATNFSLLKQAGDVEENPGPTSATMDWIWRILFLVGAATGAHSGPEVQLVESGGGLVQAGGSLRLSCAASGRTFSMGWFRQAPGKEREFVAAITYSGGSPYYADSVKGRFTISRDNAKNTVYLQMNSLKPEDTAVYYCAANPTYGSDWNAENWGQGTQVTVSSGSGGGGSGGGGSGGGGSFEQVQLQQPGAELVKPGASVKMSCKASGYAFSSYWINWMKQKPGQGLEWIGQIYPGDGDTNYNGKFKGRATLTADTSSSTAYMQLSSLTSEDSAVYFCARSITTVVGCAMDYWGQGTSVTVSSTRIQNPDPAVYQLRDSKSSDKSVCLFTDFDSQTNVSQSKDSDVYITDKCVLDMRSMDFKSNSAVAWSNKSDFACANAFNNSIIPEDTFFPSSDVPCDVKLVEKSFETDTNLNFQNLSVIGFRILLLKVAGFNLLMTLRLWSSRAKRSGSGVKQTLNFDLLKLAGDVESNPGPSRGHMTEYKPTVRLATRDDVPRAVRTLAAAFADYPATRHTVDPDRHIERVTELQELFLTRVGLDIGKVWVADDGAAVAVWTTPESVEAGAVFAEIGPRMAELSGSRLAAQQQMEGLLAPHRPKEPAWFLATVGVSPDHQGKGLGSAVVLPGVEAAERAGVPAFLETSAPRNLPFYERLGFTVTADVEVPEGPRTWCMTRKPGA
With B3, in the assay on L363 cells, the “NFAT-GFP ASSAY: L363” value was 4+ (refer to approximately 5%, 10%, 20%, 30%, 40% and 50% GFP positive cells). The “NFAT-GFP ASSAY: Nalm6” value in the assay on Nalm6 cells is 5+ (refer to approximately 5%, 10%, 20%, 30%, 40% and 50% GFP positive cells). In the assay on RS;411, the “NFAT-GFP ASSAY: RS411” value is 4+ (refer to approximately 5%, 10%, 20%, 30%, 40% and 50% GFP positive cells).

B4: 22126 (protein)
chain: MALPVTALLLPLALLLHAARPEVQLVESGGGLVQPGGSLRLSCAASGFSFSDFWMSWVRQAPGKGLEWVATISQAGSEKDYVDSVKGRFTISRDNAKKSLYLQMNSLRAEDTAVYYCASGVYSFDYRGQGTLVTVSSGTGGGGSGGGGSGGGGSEFDIQMTQSPSSLSASVGDRVTITCKASDHINNWLAWYQQKPGQAPKLLIYGATTLETGVPSRFSGSGSGTDYTLTISSLQPEDFATYYCQQSWNTPWTFGQGTKLEIKRLEDLKNVFPPEVAVFEPSKAEIAHTQKATLVCLATGFYPDHVELSWWVNGKEVHSGVCTDPQPLKEQPALNDSRYCLSSRLRVSATFWQNPRNHFRCQVQFYGLSENDEWTQDRAKPVTQIVSAEAWGRADCGITSASYHQGVLSATILYEILLGKATLYAVLVSALVLMAMVKRKDSRGRAKRSGSGATNFSLLKQAGDVEENPGPTSATMDWIWRILFLVGAATGAHSGPQVQLQESGGGLAQAGGSLRLSCAASGRTFSMGWFRQAPGKEREFVAAITYSGGSPYYASSVRGRFTISRDNAKNTVYLQMNSLKPEDTAVYYCAANPTYGSDWNAENWGQGTQVTVSSGSGGGGSGGGGSGGGGSFEQVQLQQPGAELVKPGASVKMSCKASGYAFSSYWINWMKQKPGQGLEWIGQIYPGDGDTNYNGKFKGRATLTADTSSSTAYMQLSSLTSEDSAVYFCARSITTVVGCAMDYWGQGTSVTVSSTRIQNPDPAVYQLRDSKSSDKSVCLFTDFDSQTNVSQSKDSDVYITDKCVLDMRSMDFKSNSAVAWSNKSDFACANAFNNSIIPEDTFFPSSDVPCDVKLVEKSFETDTNLNFQNLSVIGFRILLLKVAGFNLLMTLRLWSSRAKRSGSGVKQTLNFDLLKLAGDVESNPGPSRGHMTEYKPTVRLATRDDVPRAVRTLAAAFADYPATRHTVDPDRHIERVTELQELFLTRVGLDIGKVWVADDGAAVAVWTTPESVEAGAVFAEIGPRMAELSGSRLAAQQQMEGLLAPHRPKEPAWFLATVGVSPDHQGKGLGSAVVLPGVEAAERAGVPAFLETSAPRNLPFYERLGFTVTADVEVPEGPRTWCMTRKPGA
For the molecule B4, the “NFAT-GFP ASSAY: Raji” value in the assay with RAJI cells was 5+ (refer to approximately 5%, 10%, 20%, 30%, 40% and 50% GFP positive cells). The “NFAT-GFP ASSAY: Nalm6” value in the assay with Nalm6 cells is 5+ (refer to approximately 5%, 10%, 20%, 30%, 40% and 50% GFP positive cells). Further, in the assay with RS;411, the “NFAT-GFP ASSAY: RS411” value is “+/- (refer to approximately 5%, 10%, 20%, 30%, 40% and 50% GFP positive cells)”.

The values above are taken from patent US20230212319A1, “NOVEL ANTIGEN BINDING DOMAINS AND SYNTHETIC ANTIGEN RECEPTORS INCORPORATING THE SAME” (University of Southern California, priority 2020, published 2023).
